Reference: the supplement of paper PMC7125110
± gives the standard error. This sample holds only a part of the variants without activity.

B1: glmS ribozyme (parent)
chain: AUAAAAGCGCCAGAACUACAGAAAUGUAGUUGACGAGGAGGAGGUUUAUCGAAUUUUCGGCGGAUGCCUCCAAA

Tests used:
Details in all cases: with glucosamine-6-phosphate
glucosamine-6-phosphate [1] = variants of: B1; assay: self-cleavage kobs at 160 uM GlcN6P; higher = faster cleavage; RNA array
In short: (§1)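 Ribozyme variants carrying barcodes were transcribed in situ on sequenced MiSeq chips by E. coli RNA polymerase and tracked at 37 °C with a hybridised Cy3 probe. They were exposed to 40 μM to 10 mM glucosamine-6-phosphate in HEPES/KCl/Mg(OAc)2 buffer. kobs came from exponential decay fits of normalised per-tile medians, and kcat and KM from weighted Michaelis–Menten fits.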

glucosamine-6-phosphate [2] = variants of: B1; assay: self-cleavage kobs at 640 uM GlcN6P; higher = faster cleavage; RNA array
In short: as §1

glucosamine-6-phosphate [3] = variants of: B1; assay: self-cleavage kobs at 2500 uM GlcN6P; higher = faster cleavage; RNA array
In short: as §1

glucosamine-6-phosphate [4] = variants of: B1; assay: self-cleavage kobs at 10000 uM GlcN6P; higher = faster cleavage; RNA array
In short: as §1

Variant: AUAAAAGCGCAAGAACUACAGAAAUGUAGUUGACGAGGAGGGGGUUUAUCGACUUUUCGGCGGAUGCCUCCAAA
- self-cleavage kobs at 160 uM GlcN6P (glucosamine-6-phosphate [1]): < 1e-05 s⁻¹

Variant: AUAAAAGCGUCAGAACUACAGAAAUGUAGUUGACGAGGAGGAGGUUUAUCGACUUUUCGGCGGAUGCCUCCAAA
- self-cleavage kobs at 160 uM GlcN6P (glucosamine-6-phosphate [1]): < 1e-05 s⁻¹
- self-cleavage kobs at 640 uM GlcN6P (glucosamine-6-phosphate [2]): < 1e-05 s⁻¹

Variant: AUAAAAGCGUCAGAAAUACAGAAAUGUAGUUGACGAGGAGGAGGUUUAUCGAAUUUUCGGCGGAAGCCUCCAAA
- self-cleavage kobs at 160 uM GlcN6P (glucosamine-6-phosphate [1]): < 1e-05 s⁻¹
- self-cleavage kobs at 640 uM GlcN6P (glucosamine-6-phosphate [2]): < 1e-05 s⁻¹
- self-cleavage kobs at 2500 uM GlcN6P (glucosamine-6-phosphate [3]): < 1e-05 s⁻¹
- self-cleavage kobs at 10000 uM GlcN6P (glucosamine-6-phosphate [4]): < 1e-05 s⁻¹

Variant: AUAAAAGCGUCAGAACUACAGAAAUGUAGUUGACGAGGACGAGUUUUAUCGAAUUUUCGGCGGAUGCCUCCAAA
- self-cleavage kobs at 160 uM GlcN6P (glucosamine-6-phosphate [1]): < 1e-05 s⁻¹
- self-cleavage kobs at 2500 uM GlcN6P (glucosamine-6-phosphate [3]): < 1e-05 s⁻¹
- self-cleavage kobs at 10000 uM GlcN6P (glucosamine-6-phosphate [4]): < 1e-05 s⁻¹

Variant: AUAAAAGCGUCAGAACUACAGAAAUGUAGUUGACGAGGAAGAGGUUUAUCGAAUUUUCGGCGGAUGCCUCCAAA
- self-cleavage kobs at 160 uM GlcN6P (glucosamine-6-phosphate [1]): < 1e-05 s⁻¹
- self-cleavage kobs at 10000 uM GlcN6P (glucosamine-6-phosphate [4]): < 1e-05 s⁻¹

Variant: AUAAAAGCGCGAAAACUACAGAAAUGUAGUUGACGAGGAGGAGUUUUAUCGAAUUUUCGGCGGAUGCCGCCAAA
- self-cleavage kobs at 160 uM GlcN6P (glucosamine-6-phosphate [1]): < 1e-05 s⁻¹
- self-cleavage kobs at 2500 uM GlcN6P (glucosamine-6-phosphate [3]): < 1e-05 s⁻¹

Variant: AUAAAAGCGCAAGAUCUACAGAAAUGUAGUUGACGAGGAGGAGGUUUAUCGAAUUUUCGGCGGAUGCCUGCAAA
- self-cleavage kobs at 160 uM GlcN6P (glucosamine-6-phosphate [1]): 4.95e-05 ± 1.9e-05 s⁻¹
- self-cleavage kobs at 640 uM GlcN6P (glucosamine-6-phosphate [2]): 0.000432 ± 0.00013 s⁻¹

Variant: AUAAAAGCGCGAGAGCUACAGAAAUGUAGUUGACGAGGAGGAGGUUUAUCGAAUUUUCGGCGGACGCCUCCAAA
- self-cleavage kobs at 160 uM GlcN6P (glucosamine-6-phosphate [1]): < 1e-05 s⁻¹

Variant: AUAAAAGCGCAAGAACUACAGAAAUGUAGUUGACGAGGCGGAGGUUUAUCGAAUUUUCGGCGGAUGCCUGCAAA
- self-cleavage kobs at 160 uM GlcN6P (glucosamine-6-phosphate [1]): < 1e-05 s⁻¹
- self-cleavage kobs at 640 uM GlcN6P (glucosamine-6-phosphate [2]): < 1e-05 s⁻¹
- self-cleavage kobs at 2500 uM GlcN6P (glucosamine-6-phosphate [3]): < 1e-05 s⁻¹

Variant: AUAAAAGCGCGCGAACUACAGAAAUGUAGUUGACGAGGAGGAGGUUUAUCGCAUUUUCUGCGGAUAGCUCCAAA
- self-cleavage kobs at 160 uM GlcN6P (glucosamine-6-phosphate [1]): < 1e-05 s⁻¹
- self-cleavage kobs at 640 uM GlcN6P (glucosamine-6-phosphate [2]): < 1e-05 s⁻¹
- self-cleavage kobs at 2500 uM GlcN6P (glucosamine-6-phosphate [3]): < 1e-05 s⁻¹

Variant: AUAAAAGCGCAAGAACUACAGAAAUGUAGUUGACGAGAAGGAGGAUUAUCGAAUUUUCGGCGGAUGCCUCCAAA
- self-cleavage kobs at 160 uM GlcN6P (glucosamine-6-phosphate [1]): < 1e-05 s⁻¹

Variant: AUAAAAGCGCGAGGACUACAGAAAUGUAAUUGACGAGGAGGAGGUUUAUCGAAUUUUCGGCGGAUGCCUCCAAA
- self-cleavage kobs at 160 uM GlcN6P (glucosamine-6-phosphate [1]): < 1e-05 s⁻¹

Variant: AUAAAAGCGUGAGAACUACAGAAAUGUAGUUGUCGAGGAGGAGGUUUAUCGAAUUUUCGGCGGAUGCCUCCAAA
- self-cleavage kobs at 160 uM GlcN6P (glucosamine-6-phosphate [1]): < 1e-05 s⁻¹
- self-cleavage kobs at 640 uM GlcN6P (glucosamine-6-phosphate [2]): < 1e-05 s⁻¹
- self-cleavage kobs at 2500 uM GlcN6P (glucosamine-6-phosphate [3]): < 1e-05 s⁻¹
- self-cleavage kobs at 10000 uM GlcN6P (glucosamine-6-phosphate [4]): < 1e-05 s⁻¹

Variant: AUAAAAGCGCAAAAACUACAGAAAUGUAGUUGACGAGGGGGAGGUUUAUCGAAUUUUCGGCGGAUGCCUCCAAA
- self-cleavage kobs at 160 uM GlcN6P (glucosamine-6-phosphate [1]): < 1e-05 s⁻¹
- self-cleavage kobs at 640 uM GlcN6P (glucosamine-6-phosphate [2]): < 1e-05 s⁻¹

Variant: AUAAAAGCGCAAGAACUACAGAAAUGUAGUUGACGAGGCGGAGGUUUACCGAAUUUUCGGCGGAUGCCUCCAAA
- self-cleavage kobs at 160 uM GlcN6P (glucosamine-6-phosphate [1]): < 1e-05 s⁻¹
- self-cleavage kobs at 2500 uM GlcN6P (glucosamine-6-phosphate [3]): < 1e-05 s⁻¹

Variant: AUAAAAGCGCAAGAACUACAGAAAUGUAGUUGACGAGGAGGCGGUUUAUCGAAUUUUCGGCGGAUGCCUCCAAA
- self-cleavage kobs at 160 uM GlcN6P (glucosamine-6-phosphate [1]): < 1e-05 s⁻¹
- self-cleavage kobs at 640 uM GlcN6P (glucosamine-6-phosphate [2]): < 1e-05 s⁻¹
- self-cleavage kobs at 2500 uM GlcN6P (glucosamine-6-phosphate [3]): < 1e-05 s⁻¹

Variant: AUAAAAGCGUCACAACUACAGAAAUGUAGUUGACGAGGAGGAGGUUUAUCGAAUUUUCGGCGGAUGCCUCCAAA
- self-cleavage kobs at 160 uM GlcN6P (glucosamine-6-phosphate [1]): < 1e-05 s⁻¹
- self-cleavage kobs at 10000 uM GlcN6P (glucosamine-6-phosphate [4]): < 1e-05 s⁻¹

Variant: AUAAAAGCGUGAGAACUACAGAAAUGUAGUUGACGAGGCGGAGGUUUAUCGAAUUUUCGGCGGAUGCCUCCAAA
- self-cleavage kobs at 160 uM GlcN6P (glucosamine-6-phosphate [1]): < 1e-05 s⁻¹
- self-cleavage kobs at 640 uM GlcN6P (glucosamine-6-phosphate [2]): < 1e-05 s⁻¹

Variant: AUAAAAGCGCGAGAACUACAGAAAUGUAGUUAACGAGGAGGAGGUUUAUCGAAUUUUCGGCGGAGGCCUCCAAA
- self-cleavage kobs at 160 uM GlcN6P (glucosamine-6-phosphate [1]): < 1e-05 s⁻¹
- self-cleavage kobs at 640 uM GlcN6P (glucosamine-6-phosphate [2]): < 1e-05 s⁻¹
- self-cleavage kobs at 10000 uM GlcN6P (glucosamine-6-phosphate [4]): < 1e-05 s⁻¹

Variant: AUAAAAGCGCAAGAACUACAGAAAUGUAGUUGACGUGGAGGAGGUUUAUCGAAUUAUCGGCGGAUGCGUACAAA
- self-cleavage kobs at 160 uM GlcN6P (glucosamine-6-phosphate [1]): 6.51e-05 ± 2.8e-05 s⁻¹
- self-cleavage kobs at 640 uM GlcN6P (glucosamine-6-phosphate [2]): 0.000823 ± 0.0003 s⁻¹
- self-cleavage kobs at 10000 uM GlcN6P (glucosamine-6-phosphate [4]): 4.16e-05 ± 1.8e-05 s⁻¹

Variant: AUAAAAGCGCGAGCACUACAGAAAUGUAGUGGUCGAGGAGGAGGUUUAUCGAAUUUUCGGCGGAUGCCUCCAAA
- self-cleavage kobs at 160 uM GlcN6P (glucosamine-6-phosphate [1]): < 1e-05 s⁻¹
- self-cleavage kobs at 640 uM GlcN6P (glucosamine-6-phosphate [2]): < 1e-05 s⁻¹
- self-cleavage kobs at 2500 uM GlcN6P (glucosamine-6-phosphate [3]): < 1e-05 s⁻¹

Variant: AUAAAAGCGCAAUAACUACAGAAAUGUAGUUGACGAGGAGGAGGUUGAUCGCCUUUUCGGCGGAUGCCUCCAAA
- self-cleavage kobs at 160 uM GlcN6P (glucosamine-6-phosphate [1]): < 1e-05 s⁻¹

Variant: AUAAAAGCGCAAGAACUACAGAAAUGUAGUUGUCGAGGAGGAGGUUUAUCGAAUUUUCGGCGGAUACCUCCAAA
- self-cleavage kobs at 160 uM GlcN6P (glucosamine-6-phosphate [1]): < 1e-05 s⁻¹
- self-cleavage kobs at 640 uM GlcN6P (glucosamine-6-phosphate [2]): < 1e-05 s⁻¹
- self-cleavage kobs at 2500 uM GlcN6P (glucosamine-6-phosphate [3]): < 1e-05 s⁻¹

Variant: AUAAAAGCGUCAGAACUACAGAAAUGUAGUUGACGAGGAGGAGGUUUAUCGAAUUUUCGGCGGAGGCCUCCAAA
- self-cleavage kobs at 160 uM GlcN6P (glucosamine-6-phosphate [1]): < 1e-05 s⁻¹

Variant: AUAAAAGCGCAAGAGCUACAGAAAUGUAGUUGACGAGGAGGAGGUUUAUCGAAUUUUCGGCGGAUGCCGCCAAA
- self-cleavage kobs at 160 uM GlcN6P (glucosamine-6-phosphate [1]): 0.000139 ± 6.4e-05 s⁻¹
- self-cleavage kobs at 640 uM GlcN6P (glucosamine-6-phosphate [2]): 0.000293 ± 0.0001 s⁻¹
- self-cleavage kobs at 2500 uM GlcN6P (glucosamine-6-phosphate [3]): 0.000159 ± 4.9e-05 s⁻¹

Variant: AUAAAAGCGCAAGCACUACAGAAAUGUAGUGGACGAGGAGGAGGUUUAUCGAAUUUUCGGCGGAGGCCUCCAAA
- self-cleavage kobs at 160 uM GlcN6P (glucosamine-6-phosphate [1]): < 1e-05 s⁻¹
- self-cleavage kobs at 10000 uM GlcN6P (glucosamine-6-phosphate [4]): 2.62e-05 ± 1.2e-05 s⁻¹

Variant: AUAAAAGCGCAAGAACUACAGAAAUGUAGUUGACGAGGAGGAGGUGUAUCGAAUUUUCGGCGGAUGCCUCCAAA
- self-cleavage kobs at 160 uM GlcN6P (glucosamine-6-phosphate [1]): < 1e-05 s⁻¹
- self-cleavage kobs at 640 uM GlcN6P (glucosamine-6-phosphate [2]): < 1e-05 s⁻¹
- self-cleavage kobs at 10000 uM GlcN6P (glucosamine-6-phosphate [4]): 4.72e-05 ± 2.1e-05 s⁻¹

Variant: AUAAAAGCGCGAGAACUACAGAAAUGUAGUUGUCGAGGAGGAGGUUUACUGAAUUUUCGGCGGACGCCUCCAAA
- self-cleavage kobs at 160 uM GlcN6P (glucosamine-6-phosphate [1]): < 1e-05 s⁻¹

Variant: AUAAAAGCGCGAGAACUACAGAAAUGUAGUCGACGAGGAGGAGGUUUAUCGAAUUUUCGGCGGAUGCCUCUAAA
- self-cleavage kobs at 160 uM GlcN6P (glucosamine-6-phosphate [1]): < 1e-05 s⁻¹
- self-cleavage kobs at 2500 uM GlcN6P (glucosamine-6-phosphate [3]): < 1e-05 s⁻¹

Variant: AUAAAAGCGCGAGAACUACAGAAAUGUAGUUGCCCAGGAGGAGGUUUAUCGAAUUUUCGGCAGAUGCCUCCAAA
- self-cleavage kobs at 160 uM GlcN6P (glucosamine-6-phosphate [1]): < 1e-05 s⁻¹
- self-cleavage kobs at 640 uM GlcN6P (glucosamine-6-phosphate [2]): < 1e-05 s⁻¹

Variant: AUAAAAGCGCAAGAAAUACAGAAAUGUAGUUGACGAGGAGGAGGUUUAUCGAAUUUUCGGCGGAUGCCUCCAAA
- self-cleavage kobs at 160 uM GlcN6P (glucosamine-6-phosphate [1]): < 1e-05 s⁻¹
- self-cleavage kobs at 10000 uM GlcN6P (glucosamine-6-phosphate [4]): 2.86e-05 ± 1e-05 s⁻¹

Variant: AUAAAAGCGUCAUAACUACAGAAAUGUAGUUGACGAGGAGGUGGUGUAUCGAAUUUACGGCGGAUGCCUCCAAA
- self-cleavage kobs at 160 uM GlcN6P (glucosamine-6-phosphate [1]): < 1e-05 s⁻¹
- self-cleavage kobs at 640 uM GlcN6P (glucosamine-6-phosphate [2]): < 1e-05 s⁻¹
- self-cleavage kobs at 2500 uM GlcN6P (glucosamine-6-phosphate [3]): < 1e-05 s⁻¹

Variant: AUAAAAGCGUCAGAACUACAGAAAUGUAGUUCACGGGGUGGAGGUUUAUCGAAUUUUCGGCGGAUGCCUCCAAA
- self-cleavage kobs at 160 uM GlcN6P (glucosamine-6-phosphate [1]): < 1e-05 s⁻¹
- self-cleavage kobs at 640 uM GlcN6P (glucosamine-6-phosphate [2]): < 1e-05 s⁻¹
- self-cleavage kobs at 2500 uM GlcN6P (glucosamine-6-phosphate [3]): < 1e-05 s⁻¹
